# Patent US20250109187A1 (NOVAVAX, published 2025)
# Legend:
# [1] = molecular target: T1, Prototype (Wuhan-Hu-1) rS (SARS-CoV-2 (parent virus, Wuhan-Hu-1), UniProt P0DTC2 14-1273); experiment: ELISA: rS coated, mAb titrated, anti-mouse HRP
# T1 construct: also called Prototype rS; Prototype spike
# [2] = molecular target: T1, Prototype (Wuhan-Hu-1) rS
binder,measurement,setting,value
"NVX.62.12 (antibody, V domains shown, also called mAb NVX.62.12) VH: QVQLQQSGAELVRPGVSVKISCKGSGYTFTDYAMHWVKQSHAKSLEWIGVISTYSGDAYYNQKFKGKATVTVDKSSSTAYMELARLTSEDSAIYFCARNWDDYYAMDYWGQGTSVTVSS VL: QIILSQSPAILSASPGERVTMTCRATSSVSYMHWYRQKPGSSPQPWIYATSNLASGVPARFSGSGSGTSYSLTISRVEAEDAATYYCQQWSGNPWTFGGGTKLEIK",EC50,[1],> 5 µg/mL
same,IC50,[2],> 3 µg/mL
"NVX.324.6 (antibody, V domains shown, also called mAb NVX.324.6) VH: EVQLQQSGPELGKPGTSMKISCKASGYSFTGYTMNWVKQSHGKNLEWIGLINPYNGGTSYNQKFKDKATLTVDKSSSTAYMELLSLTSEDSAVYYCVREHYYYDSGYGGYYAMDYWGQGTSVTVSS VL: QIVLSQSPAILSASPGDKVTMTCRASASVNYMYWYQQKPGSSPKPWIYATSNLASGVPARFSGSGSGTSYSLTISRVEAEDAAIYYCQQWSSNPYTFGGGTKLEIK",EC50,[1],> 5 µg/mL
same,IC50,[2],> 3 µg/mL
